The nanobody polyreactivity screen of Harvey et al. (2022)

Assay: yeast display, Sf9 membrane polyspecificity reagent, FACS + sequencing; frameworks hold sequencing errors
In short: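 A synthetic nanobody library was expressed on Saccharomyces cerevisiae BJ5465 by galactose induction for 36–48 hours. The library was stained for 1 hour at 4 °C with 10% biotinylated, detergent-solubilized Sf9 membrane reagent and enriched with streptavidin microbeads before FACS. Low and high (top ~1%) gates were set on anti-HA fluorescence for expression and streptavidin fluorescence for reagent binding, and each polyreactivity label reflects the gate of origin.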

| Sequence | polyreactivity (PSR sort gate) |
| --- | --- |
| QVQLVDSGGGLVQAGGSLRLRCAASGITFLGNDMGWYRQAPGKERELVAAISSGSTNYADSVKGRFTISRDNANKTVDLQMNSLKPADPAVYYCAADIRGGLSNYSPKDYDYWGQGTQVTVSS | low polyreactivity |
| QVQLVDSGGGLVQAGGSLRLSCAASGAIFEYYAMAWNRQAPGKERELVAAISWSGGSTYYADSVKGRFTISRDNAKNTVYLQMNSLKPEDTAVYYCAADYYLYQVYTGYDYWGQGTQVNVSS | low polyreactivity |
| QVQLVDSGGGLVQAGGSLRLSCAASGFIFDVYAMGGYRQAPGKERELVAAITSGDGTNYADSVKGRFTISRDNAKNTVYFQMNSLKPEDTAVYYCAADDGVTYRGIIFSYWGQGTQVTVSS | low polyreactivity |
| QVQLVDSGGGLVQAGGSLRLSCAASGFIFPINAMGWYRQAPGKERELVAAITGGGSTSYADSVKGRFTISRDNAKNTVYLQMNSLKPEDTAVYYCATDRLTYTKYGYWGQGTLVTVSS | low polyreactivity |
| QVQLVDSGGGLVQAGGSLRLSCAASGFIFVGYGMGWYRQAPGKERELVAAIDGGGSTYYADSVKGRFTISRDNAKNTVYLQMNSLKPEDTAVYYCNALPAYGWYDYDYWGQGTQVTVSS | low polyreactivity |
| QVQLVDSGGGLVQAGGSLRLSCAASGFNFDQYGLGWYRQAPGKERELVASITSTGSTYYADSVKGRFTISRDNAKNTVYLQMNSLKPEDTAVYYCATDSYDGMDYWGQGTQVTVSS | low polyreactivity |
| QVQLVDSGGGLVQAGGSLRLSCAASGFTFRDYAMGWYRQAPRKERELVAAISRSGDSTYYADSVKGRFTISRDNAKNTVYLQMNSLKPEDTAVYYCNTAGFYWLHYTMDYWGQGTQVTVSS | high polyreactivity |
| QVQLVDSGGGLVQAGGSLRLSCAASGFTFYSYAMGWYRQAPGKERELVASITSGGSTYYADSVKGLFTISRDNGKNTVYLPMNSLNPEYTAVSYCAATRGYSQYGRVRKYGYWGLGTQVTVSS | high polyreactivity |
| QVQLVDSGGGLVQAGGSLRLSCAASGIIFVGYAMGWYRQAPGKERELVAAITYNVGSTYYADSVKGRFTISRDNAKNTVYLQMKSLKPEDTAVYYCNADRYPFFDLLISRYGSNPYDYWGQGTQVTVSS | low polyreactivity |
| QVQLVDSGGGLVQAGGSLRLSCAASGIIFWRYAMGWYRQAPGKERELVASISSSGGRTYYADSVKGRFTISRDNAKNTVYLQMNSLKPEDTAVYYCAARGPYGYDLLYYWGQGTQVTVSS | high polyreactivity |
| QVQLVDSGGGLVQAGGSLRLSCAASGIIFWYYTRGWYRQAPGKERELVASISRGGSTYYADSVKGRFTISRDNAKNTVYLQMNSLKPEDTAVYYCARRPNTGPYGNYDYWGQGTQVTVSS | high polyreactivity |
| QVQLVDSGGGLVQAGGSLRLSCAASGIIYRFYAMGWYRQAPAQEREMVAAISSGGSTYYADSVKGRCTISRDTAKNTVYLQINRLKPEDTAVYYCNARVRYKRTGRYGYWGQGTQVTVSS | high polyreactivity |
| QVQLVDSGGGLVQAGGSLRLSCAASGINFASYAMGWYRQAPGKEMEIVAAISRSGSSTYYADSVKGRFTISRDNAKYTVYLQMNSLKPEDTAVYYCARARSGGSHREYYWGQGTQVTVSS | high polyreactivity |
| QVQLVDSGGGLVQAGGSLRLSCAASGITFGRNTMGGYRQAPGKERELVAAIDSGGNTYADSVKGRFTISRDNAKNSVYLQMNSLKPEDTAVYYCAVDGGEFSSYGYWGQGTQVTVSW | low polyreactivity |
| QVQLVDSGGGLVQAGGSLRLSCAASGITFRRYAMGWYRQAPGKERELVASITRNGGITYYADSVKGRFTISRDNAKNTVYLQMNSLKPEDTAVYYCNAVFYYPYPADRRDYWGQGTQVTVSS | high polyreactivity |
| QVQLVDSGGGLVQAGGSLRLSCAASGITFWSYAMGWYRPAPGKERELVAGISRRGGSTYYADSVKGRFTISRDNAKNTVYLQMNSLKPEDTAVYYCAARAYPTPVRSFLYTDIVYYWGQGTQVTVSS | high polyreactivity |
| QVQLVDSGGGLVQAGGSLRLSCAASGITFYFNAMGWYRQAPGKERELVAAITRGGRTNYADSVKGRFTISRDNAKNTVYLQMNSLKPEDTAFYYCAAYIYRGRETNGPDYYYWGQGTQVTVSS | low polyreactivity |
| QVQLVDSGGGLVQAGGSLRLSCAASGLIFDSYDMGWYRQEPGKERELVSPIRRNGGSTYYADSVKGRFTISRDNAMYTVYLQMNSLKPEDTAVYYCAVDNSGYCGVYWVKMDYWGQGSQVTVSS | low polyreactivity |
| QVQLVDSGGGLVQAGGSLRLSCAASGLTFQWYTMGWYRPAPGKERELVAAISSRGGSTYYADSVKGRFTISRDNAKNTVYLQMNSLKPEDTAVYYCAAVSGWEHRYDYWGQGTLVTVSS | high polyreactivity |
| QVQLVDSGGGLVQAGGSLRLSCAASGLTFQYKAMGRYRHAPGKERELVATISQSGGSTYYADSVKGRFTISRDNAKNTVYLQMNSLKPEDTAVYYCAADGAWGTASYSVAFDYWGQGTQVTVSS | low polyreactivity |
| QVQLVDSGGGLVQAGGSLRLSCAASGLTFYYYAMGWYRQAPGKESELVSAISATGGRTYYSDSVKGRFTISRDNAKNTVYLQMNSLKPEDTAVYYCAADTPYLRRRLGMDYWGQGTQVTVSS | high polyreactivity |
| QVQLVDSGGGLVQAGGSLRLSCAASGLTIYAYAMGWYRQAPGKERELVAAISSGGSTSYADSVKGRFTISRDNAKNTVYLQMNSLKPEDTAVYYCAARPKSSRFFGWGYNYWGQGTQVTVSS | high polyreactivity |

| Sequence | polyreactivity (PSR sort gate) |
| --- | --- |
| QVQLVDSGGGLVQAGGSLRLSCAASGNIICGYARGRNIQAPGKEREMVASISQRGGITYYADSVKGRFTISRDKAKNTVYLEMNSLKAEDTEVYYCAKRGTYGWYGAYDYWGEGTQVTVSS | low polyreactivity |
| QVQLVDSGGGLVQAGGSLRLSCAASGNTFIYYAMGWYRQAPGKERELVAAITWSGGSTYYADSVKGRFTISRDNAKNTVYLQMNSLKPEDTAVYYCAKFTHNYYYWGQGTQVTVSS | high polyreactivity |
| QVQLVDSGGGLVQAGGSLRLSCAASGPIFKRYAMGWYRQAPGKERELVASITTSGDSTYYADSVKGRFTISRDNAKNTVYLQMNSLKPEDTAVYYCAGRSYSGRRYDYWGQGTQVTVSS | high polyreactivity |
| QVQLVDSGGGLVQAGGSLRLSCAASGRIFDYNAMGWYRQAPGKERELVAVITGTGGTTYYADSVKGRFTISRDNAKNTVYLQMNSVKPEDTAVYYCNADDYRLTSLYIPERYDYWGQGTQLTVSS | low polyreactivity |
| QVQLVDSGGGLVQAGGSLRLSCAASGRIFHGYAMGWYRLAPGKERELVAAISWRGDSTYYADSVKGRFTISRDNAKNTVYLQMNSLKPEDTAVYYCAAASRSWRDDYWGQGTQVTVSS | low polyreactivity |
| QVQLVDSGGGLVQAGGSLRLSCAASGRIFLVNALGGSRQAPGKERELVAAISYRSGRTYSADSVKGRFTISRDTAKNTVYLQMNSLIPEDTAVYYCAAYTNVADMDYWGQGTQVTVSS | high polyreactivity |
| QVQLVDSGGGLVQAGGSLRLSCAASGRIFYVYAMGWYRQATGKERQLVASIRYSGATTYYADSVKGRFTISLDNAKNTVYLQMNSLKPEDTAVYYCAADTLGTPAYRYEYWGQGTQVTVSS | low polyreactivity |
| QVQLVDSGGGLVQAGGSLRLSCAASGRTFDGYAMGWYRQAPGKERELVAAISRTGGSTYYADSVKGRFTISRENAKNTVYLLMTSLKPEDTAVYYCNAVTLSSTYGGHDYWGQGTQVTVSS | high polyreactivity |
| QVQLVDSGGGLVQAGGSLRLSCAASGRTFGIYAMGWYRQAPGKERELVAAIRWRDGSTYYADSVKGRFTISRDNAKNTVYLQMYSLKPEDNAVYYCAATSLVYVRGSYWKYGYWGQGTQVTVSS | high polyreactivity |
| QVQLVDSGGGLVQAGGSLRLSCAASGRTFLSMGWYRQAPGKERELVAAISRTNYADSVKGRFTISRDNAKNTVYLQMNSLKPEDTAVYYCAAVPKYGRYVRIGYPNDYWGQGTQVTVSS | low polyreactivity |
| QVQLVDSGGGLVQAGGSLRLSCAASGRTFPSYVMGWYRQAPGKERELVAAISWSGGSTSYADSVKGRFTISRDNAKNTVYLQMNSLKPEDTAVYYCNADRRPGGDYWGQGTQVTVSS | low polyreactivity |
| QVQLVDSGGGLVQAGGSLRLSCAASGRTFWYYDMGWYRQAPGKERELVATINNVGSTHYADSVKGRFTISRDNAKNTVYLQMNSLNPEDTAVYYCARASYGKMDYWGQGTQLTVSS | high polyreactivity |
| QVQLVDSGGGLVQAGGSLRLSCAASGRTFWYYTMGWYRQAPGKEREFVAAIRGSGTSTYYADSVKARFTISRDNEKNTVYLQMNSLKPEDTAVYYCAAESPVYHLVTYDYWGQGTQVTVSS | high polyreactivity |
| QVQLVDSGGGLVQAGGSLRLSCAASGRTFYTYAMGWYRVAPGKEWELVAAITGGGSTTYADSVKGRFTISRDNAKNTVYLQMNSLKPEDTEVYYCAALIYGPERVVDEYDYWGQGTQVTVSS | low polyreactivity |
| QVQLVDSGGGLVQAGGSLRLSCAASGRTVRYYTMGWYRQAPGKERELVAAISNAASTNYADSVKGRFTISRDNAKNTVYLQMNSLKPEDTAVYYCNAYLHYRAGHPRGYHNRYYYWGQGTQVTVSS | high polyreactivity |
| QVQLVDSGGGLVQAGGSLRLSCAASGSIFHANAMGWYRQAPGKERELVAVISQGGGSTYYADSVKGRFTISRDNAKNTVYLQMNSLKPEDTAVYYCAAYYYYSAYGDDYWGQGTQVTVSS | high polyreactivity |
| QVQLVDSGGGLVQAGGSLRLSCAASGSIFHVYAMGWYRQAPGKERELFAAIDRSGGSTYYADSVKGRFTISRDNAKNTVYLQMNSLKPEDTAVFYCAKDVLGGLITDGVGNDYWGQGTQLTVSS | low polyreactivity |
| QVQLVDSGGGLVQAGGSLRLSCAASGSIFPKNAMGWYRPAPGKERELVAAISSGGGGTYYADSVKGRFTISRDNAKNTVYLQMNSLKPEDTAVFYCNKRDGNGGNTKYDYWGQGTQVTVSS | low polyreactivity |
| QVQLVDSGGGLVQAGGSLRLSCAASGSIFRRNAMGWYRQAPGKERELVAAITRSGSGTSYADSVKGRFTISLDNAKNTVYLQMNSLKPEDTAVYYCNAAYVYGDQARGGYWGQGTQVTVSS | high polyreactivity |
| QVQLVDSGGGLVQAGGSLRLSCAASGSIFTDNAMGWYIQAPGKERDLVAAITGRGGNTYYADSLKGRFPISRDNAKNTVYLQMNSLKPEDTAVYYCAARIFRTRKPLGYWGQGTQVTVSS | high polyreactivity |
| QVQLVDSGGGLVQAGGSLRLSCAASGSIFVKYAMGWYRQAPGKERELVAAISWRGGSTYYADSVKGRFTISRDNAKNTVYLQMNSLKPEDTAVYYCAKYPGISGYNYWGQGTQVTVSS | high polyreactivity |
